The target in assay [1] is T1, human activated protein C (Homo sapiens, UniProt P04070).
T1 construct: purchased Haematologic Technologies
The experiment in a line: Inhibition of APC amidolytic activity (Spectrozyme PCa chromogenic substrate). It counts as biochemical. The method, then:
B: Dose-response curves of APC (10 nM) inhibition by DrKIn-I in the absence (◯) and presence (●) of 0.1 U/ml heparin. C: To determine the minimum concentration of heparin required for the potentiation APC inhibition, the activity of APC (20 nM) was measured after the addition of DrKIn-I (20 nM) and varying concentrations of heparin (0-1000 mU/ml). D: To assess the ability of heparan sulfate and the minimum length of heparan sulfate required to potentiate DrKIn-I-mediated APC inhibition, the amidolytic activity of APC was determined in the presence of DrKIn-I (20 nM) and different lengths of heparan sulfate chains (10 μg/ml each). E, Time course of FVa inactivation by APC (1 nM) was assessed in the absence (●) or presence (▪) of 5 nM DrKIn-I, or in the presence of 5 nM DrKIn-I supplemented with 0.1 U/ml heparin (▴), as described in “Materials and methods”. F, The effect of DrKIn-I (0-250 nM) and/or heparin (0.1 U/ml) on APC-mediated FVa inactivation was determined after 10 minutes of incubation at 37° C. with APC (5 nM). Results shown are means±SD of three experiments.
All inhibition assays were performed in 96-wells microtiter plates in 25 mM Tris-HCl (pH 7.4), 150 mM NaCl, 2.5 mM CaCl2 and 5 mg/ml BSA. For comparison between DrKIn-I and DrKIn-II, the amidolytic activity of 10 nM APC, with or without 0.1 U/ml heparin, was assayed in the presence or absence of equal molar concentrations of DrKIn-I or DrKIn-II. Immediately after the addition of APC, Spectrozyme PCa was added and the rates of p-nitroaniline release were monitored at 405 nm for 10 minutes at 37° C. For dose response curves, APC was mixed with different concentrations of DrKIn-I in the presence or absence of heparin. The final concentrations were as follows: APC (10 nM), heparin (0.1 U/ml) and DrKIn-I (0-100 nM in the presence of heparin and 0-12800 nM in the absence of heparin). Dose-response curves were fitted using GraphPad Prism (GraphPad Software). In other inhibition experiments, varying concentrations of heparin ([…]) or different lengths of heparan sulfate chains (10 μg/ml) were added to equimolar concentrations of APC and DrKIn-I (20 nM each). In all the inhibition experiments, Spectrozyme PCa was added to a final concentration of 0.2 mM. Changes in absorbance were measured using SpectraMax M2^e Microplate Reader (Molecular Devices).

Assay [2] can be described thus: Heparin binding assay (HiTrap Heparin column, NaCl gradient). As to conditions: data not shown. The method, then:
A: 70 μg of DrKIn-I in 0.1 ml equilibrating buffer (20 mM Tris-HCl, pH 8.0) was applied to a 5 ml HiTrap Heparin column and eluted with a 50 ml gradient from 0.0-1.0 M NaCl. The salt concentration corresponding to the elution peak was determined to be 0.95 M. B, Binding of DrKIn-I (0.78, 1.56, 2.34, 3.13, 4.68 and 6.25 nM) to immobilized APC was assessed in buffer containing 10 mM HEPES, 0.15 M NaCl, 3 mM EDTA and 0.05% P20 at a flow rate of 60 μl/min at 25° C. […] The thin lines represent the global fit to the response data. […] Results shown are means±SD of three experiments. Representative binding traces are shown.

For assay [3], the target named is T2, APC (Homo sapiens, UniProt P04070). The experiment in a line: APC inhibition by recombinant DrKIn-I wild type and mutants (S-2366 chromogenic substrate). Conditions: APC 20 nM, S-2366 0.4 mM. The assay is classed as biochemical. The text has this: A: amino acid alignment of the C-terminal regions of the wild-type DrKIn-I peptide and three mutants, which were generated by either deleting or mutating (alanine substitution; denoted by bold letters) one or both of the C-terminus heparin binding motifs. Underlined amino acids are the putative heparin binding motifs. B: SDS-PAGE analysis of the wild-type and mutant DrKIn-I peptides. Wild-type: SEQ ID NO:3. Mutant 1: SEQ ID NO:4. Mutant 2: SEQ ID NO:5. Mutant 3: SEQ ID NO:6. C-D: Inhibitory effect of DrKIn-I wild type (●), mutant 1 (▴), mutant 2 (▾) and mutant 3 (▪) on APC (20 nM) in the presence (C) or absence (D) of heparan sulfate (10 μg/ml). Activity of APC without the addition of inhibitors was considered as 100%.
The wild-type DrKIn-I and the mutants at various concentrations were mixed with APC (20 nM) in the presence of heparin or heparan sulfate (10 μg/ml). After 3 minutes of incubation, a chromogenic substrate S-2366 (0.4 mM) was added and the rate of p-nitroaniline release was monitored at 405 nm for 10 minutes at 37° C. […] On the other hand, Mutants 1 and 2 inhibit APC in the presence of heparin.
Target sequence in this assay (P04070 212-450 limits assumed): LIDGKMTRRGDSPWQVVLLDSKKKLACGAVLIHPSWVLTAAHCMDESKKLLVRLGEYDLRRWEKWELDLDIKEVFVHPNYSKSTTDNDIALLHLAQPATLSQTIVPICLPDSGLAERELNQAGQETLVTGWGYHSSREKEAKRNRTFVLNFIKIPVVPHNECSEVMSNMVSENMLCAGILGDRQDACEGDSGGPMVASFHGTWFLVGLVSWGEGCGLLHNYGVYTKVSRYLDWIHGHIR
Target sequence in this assay (P04070 43-197 limits assumed): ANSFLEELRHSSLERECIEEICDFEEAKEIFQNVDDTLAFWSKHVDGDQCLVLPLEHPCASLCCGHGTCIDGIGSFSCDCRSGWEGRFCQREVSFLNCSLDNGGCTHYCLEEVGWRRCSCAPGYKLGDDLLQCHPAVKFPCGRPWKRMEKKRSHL

Assay [4] relates to plasmin. The experiment in a line: Euglobulin clot lysis assay. It counts as biochemical.
The target in assay [5] is T2, APC. As to conditions: in the absence of heparin; cited from earlier work.
Target sequence in this assay (P04070 212-461 limits assumed): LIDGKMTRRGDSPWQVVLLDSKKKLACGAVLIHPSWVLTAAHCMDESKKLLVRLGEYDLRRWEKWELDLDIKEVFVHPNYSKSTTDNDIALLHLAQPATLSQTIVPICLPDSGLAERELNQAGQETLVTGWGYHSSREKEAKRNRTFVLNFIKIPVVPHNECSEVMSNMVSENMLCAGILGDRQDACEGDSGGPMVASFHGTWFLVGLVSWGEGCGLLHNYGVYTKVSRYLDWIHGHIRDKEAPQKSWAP
Target sequence in this assay (P04070 43-197 limits assumed): as the sequence (P04070 43-197 limits assumed) above

T1 sequence (P04070 212-450 limits assumed): as the sequence (P04070 212-450 limits assumed) above
T1 sequence (P04070 43-197 limits assumed): as the sequence (P04070 43-197 limits assumed) above

Take “DrKIn-II (HDRPTFCNLAPESGRCRAHLRRIYYNLESNKCEVFFYGGCGGNDNNFSTWDECRHTCVGK)”: in assay [1] (10 nM inhibitor, 10 nM APC, no heparin), the “inhibitory activity against APC in the absence of heparin” value is given as “little inhibitory activity against APC”. In assay [1] (equimolar inhibitor and APC (10 nM each), 0.1 U/ml heparin, Spectrozyme PCa 0.2 mM), the “decrease of APC activity (inhibition of APC amidolytic activity)” value was ~20%. Also, in assay [1] (summary statement in discussion), the “inhibitory activity against APC” value is “no inhibitory activity against APC”. Further, the “affinity towards heparin column” value in assay [2] is “no affinity towards heparin column”.

As to “Mutant 1: Recombinant DrKIn-I mutant R50A/K51A/K52A lacking one of the two heparin binding sites (CGGNDNNFETAAACRQTCGAPRKGRPT)”, in assay [3], the “APC inhibition in the presence of heparin” value was “inhibit APC”. In the case of “Mutant 2: Recombinant DrKIn-I deletion mutant Δ60-66 lacking one of the two heparin binding sites (CGGNDNNFETRKKCRQTCGA)”, in assay [3], the “APC inhibition in the presence of heparin” value is recorded as “inhibit APC”. For aprotinin [reference compound], the “prolongation of euglobulin clot lysis time” value is ~9 h in assay [4] (20 nM inhibitor) and “more than 16 hours” in assay [4] (100 nM inhibitor). As to heparin [reference compound], the “effect of heparin alone on APC activity” value in assay [1] (heparin alone 0.1 U/ml, regardless of the type of substrate (Spectrozyme PCa or FVa)) is on record as “did not alter the activity of APC”.

B1: protein C inhibitor: plasma APC inhibitor belonging to the serpin family (protein, UniProt P05154 26-406, looked up)
Plasma serine protease …: EMKKRVEDLHVGATVAPSSRRDFTFDLYRALASAAPSQSIFFSPVSISMSLAMLSLGAGSSTKMQILEGLGLNLQKSSEKELHRGFQQLLQELNQPRDGFQLSLGNALFTDLVVDLQDTFVSAMKTLYLADTFPTNFRDSAGAMKQINDYVAKQTKGKIVDLLKNLDSNAVVIMVNYIFFKAKWETSFNHKGTQEQDFYVTSETVVRVPMMSREDQYHYLLDRNLSCRVVGVPYQGNATALFILPSEGKMQQVENGLSEKTLRKWLKMFKKRQLELYLPKFSIEGSYQLEKVLPSLGISNVFTSHADLSGISNHSNIQVSEMVHKAVVEVDESGTRAAAATGTIFTFRSARLNSQRLVFNRPFLMFIVDNNILFLGKVNRP
Regarding B1, the “second order rate constant of APC inhibition” value in assay [5] is 2500 M⁻¹ s⁻¹.

The values are drawn from patent publication US9206246B2, “Heparin/heparan sulfate-dependent inhibitors of activated protein C and uses thereof in treating hemophilic disorders” (Academia Sinica, priority 2012, dated 2015).
